Laboratory results taken from publication PMC4013092.

Target: Mdb1 (UniProt O14079)
Test: biotin-peptide streptavidin pull-down, Coomassie stain
Conditions: reference: unphosphorylated H2A peptide; sites S129

H2A.1 C-terminal 13 residues, 120-132 (from UniProt P04909) pS129 (γH2A) peptide
binding against the reference: gained
